Measurements from article PMC5482573.

Target: COPI coat leaf (one coatomer complex with two Arf1 molecules) assembled on vesicle membranes (M. musculus | S. cerevisiae) (UniProt Q8CIE6)
Assay: cryo-EM structure; COPI coated vesicles with GTPγS incubated 15–20 min with a 10 molar excess of ArfGAP2; subtomogram averaging, difference map and classification; class with ArfGAP2 at 10.1 Å

Sequence of R. norvegicus ArfGAP2, full-length, N-terminally His-tagged (Q3MID3 whole entry): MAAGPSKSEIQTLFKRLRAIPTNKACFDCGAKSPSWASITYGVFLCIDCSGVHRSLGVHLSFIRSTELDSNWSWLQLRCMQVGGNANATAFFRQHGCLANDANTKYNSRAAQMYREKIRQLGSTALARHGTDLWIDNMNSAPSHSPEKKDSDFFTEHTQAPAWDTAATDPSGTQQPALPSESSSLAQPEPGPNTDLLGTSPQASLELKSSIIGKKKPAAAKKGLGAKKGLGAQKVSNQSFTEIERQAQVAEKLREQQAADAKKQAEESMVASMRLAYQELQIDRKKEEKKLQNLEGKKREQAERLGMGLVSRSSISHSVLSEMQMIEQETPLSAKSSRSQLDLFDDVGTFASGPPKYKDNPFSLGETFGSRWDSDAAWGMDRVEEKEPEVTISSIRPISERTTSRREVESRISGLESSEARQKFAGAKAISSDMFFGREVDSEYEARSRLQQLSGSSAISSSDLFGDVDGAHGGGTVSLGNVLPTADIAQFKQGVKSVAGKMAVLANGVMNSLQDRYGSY

R. norvegicus ArfGAP2, full-length, N-terminally His-tagged (from UniProt Q3MID3 1-520) (enzyme)
share of the leaves in the class with bound ArfGAP2: 65%
